# Test results as given in patent EP4610277A1 (Daiichi Sankyo Company, Limited, dated 2025).
# T1: TIGIT (Fc, R&D system 9464-TG-050) (UniProt Q495A1 22-141)
# T1 construct: Bought Fc-tagged protein
# T1 sequence (looked up): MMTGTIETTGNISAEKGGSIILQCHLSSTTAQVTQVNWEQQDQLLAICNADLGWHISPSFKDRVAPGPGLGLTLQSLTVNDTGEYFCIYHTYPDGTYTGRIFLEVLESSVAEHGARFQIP
# T2: NKG2D (Fc, R&D system 1299-NK-050) (UniProt P26718 78-216)
# T2 construct: Bought Fc-tagged protein
# T2 sequence (looked up): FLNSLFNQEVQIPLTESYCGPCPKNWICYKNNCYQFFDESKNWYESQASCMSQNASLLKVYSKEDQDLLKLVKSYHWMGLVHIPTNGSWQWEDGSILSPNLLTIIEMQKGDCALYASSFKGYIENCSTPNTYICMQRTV
# T3: NKp30 (Fc, R&D system 1849-NK-025) (UniProt O14931 19-138, limits assumed)
# T3 construct: Bought Fc-tagged protein
# T3 sequence (looked up): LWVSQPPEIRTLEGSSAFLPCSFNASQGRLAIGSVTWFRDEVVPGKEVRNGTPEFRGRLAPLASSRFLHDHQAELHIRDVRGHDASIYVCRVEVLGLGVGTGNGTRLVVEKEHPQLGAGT
# T4: CD32b/c (Fc, R&D system 1875-CD-050) (UniProt P31994 46-217)
# T4 sequence (looked up): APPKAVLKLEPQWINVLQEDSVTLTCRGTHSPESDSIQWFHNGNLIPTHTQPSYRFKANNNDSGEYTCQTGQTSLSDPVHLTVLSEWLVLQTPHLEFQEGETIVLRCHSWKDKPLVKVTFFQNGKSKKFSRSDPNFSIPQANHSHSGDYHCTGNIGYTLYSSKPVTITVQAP
# T5: NKp44 (Fc, R&D system 2249-NK-050) (UniProt O95944 22-190, limits assumed)
# T5 construct: Bought Fc-tagged protein
# T5 sequence (looked up): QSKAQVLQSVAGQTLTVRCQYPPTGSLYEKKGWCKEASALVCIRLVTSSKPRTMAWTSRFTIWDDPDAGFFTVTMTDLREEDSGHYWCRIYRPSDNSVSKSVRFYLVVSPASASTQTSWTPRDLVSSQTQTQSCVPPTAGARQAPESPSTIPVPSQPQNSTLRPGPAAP
# T6: CD32a (Fc, R&D system 1330-CD-050) (UniProt P12318 36-218)
# T6 sequence (looked up): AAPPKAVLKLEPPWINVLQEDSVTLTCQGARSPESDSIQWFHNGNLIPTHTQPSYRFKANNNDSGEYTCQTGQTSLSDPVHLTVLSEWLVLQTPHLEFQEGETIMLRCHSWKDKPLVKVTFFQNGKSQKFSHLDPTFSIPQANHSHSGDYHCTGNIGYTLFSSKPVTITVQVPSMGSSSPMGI
# Legend:
# [1] = target: T7, NKp46 (Fc, R&D system 1850-NK-025) (UniProt O76036 22-258, limits assumed); assay: flow cytometry, tagged protein on scFv-K562 cells
# T7 construct: Bought Fc-tagged protein
# [2] = target: T8, NKG2E (Fc, R&D system 9759-NK-050) (UniProt Q07444 94-240, limits assumed); assay: flow cytometry, tagged protein on scFv-K562 cells
# T8 construct: Bought Fc-tagged protein
# [3] = target: CD16a (Fc, R&D system 4325-FC-050) (UniProt P08637 17-208); assay: flow cytometry, tagged protein on scFv-K562 cells
# [4] = target: T1, TIGIT (Fc, R&D system 9464-TG-050); assay: flow cytometry, tagged protein on scFv-K562 cells
# [5] = target: T2, NKG2D (Fc, R&D system 1299-NK-050); assay: flow cytometry, tagged protein on scFv-K562 cells
# [6] = target: T9, LILRB2 (His, R&D system 8429-T4-050) (UniProt Q8N423 22-458); assay: flow cytometry, tagged protein on scFv-K562 cells
# T9 construct: Bought His-tagged protein
# [7] = target: T10, recombinant human KIR3DS1/CD158e2 Fc chimera protein (4136-KR-050, R&D Systems) (human, UniProt Q14943 22-340, limits assumed); assay: flow cytometry, tagged protein on scFv-K562 cells
# T10 construct: Bought Fc chimera; also called soluble KIR3DS1; recombinant KIR3DS1
# [8] = target: T3, NKp30 (Fc, R&D system 1849-NK-025); assay: flow cytometry, tagged protein on scFv-K562 cells
# [9] = target: T11, KIR2DL1 (Fc, R&D system 1844-KR-050) (UniProt P43626 22-245); assay: flow cytometry, tagged protein on scFv-K562 cells
# T11 construct: Bought Fc-tagged protein
# [10] = target: CD16b (Fc, R&D system 1597-FC-050) (UniProt O75015 17-200, limits assumed); assay: flow cytometry, tagged protein on scFv-K562 cells
# [11] = target: T12, KIR3DL1 (Fc, R&D system 1225-KR-050) (UniProt P43629 22-340); assay: flow cytometry, tagged protein on scFv-K562 cells
# T12 construct: Bought Fc-tagged protein
# [12] = target: T13, LILRB1 (Fc, R&D system 2017-T2-050) (UniProt Q8NHL6 24-458); assay: flow cytometry, tagged protein on scFv-K562 cells
# T13 construct: Bought Fc-tagged protein
# [13] = target: T4, CD32b/c (Fc, R&D system 1875-CD-050); assay: flow cytometry, tagged protein on scFv-K562 cells
# [14] = target: T5, NKp44 (Fc, R&D system 2249-NK-050); assay: flow cytometry, tagged protein on scFv-K562 cells
# [15] = target: T6, CD32a (Fc, R&D system 1330-CD-050); assay: flow cytometry, tagged protein on scFv-K562 cells
# [16] = target: T14, KIR2DL5 (Fc, R&D system 6634-KR-050) (UniProt Q8N109 22-238, limits assumed); assay: flow cytometry, tagged protein on scFv-K562 cells
# T14 construct: Bought Fc-tagged protein
# [17] = target: CD64 (Fc, R&D system 1257-FC-050) (UniProt P12314 16-288); assay: flow cytometry, tagged protein on scFv-K562 cells
# [18] = target: T15, CD161 (Fc, R&D system 7448-CD-050) (UniProt Q12918 67-225); assay: flow cytometry, tagged protein on scFv-K562 cells
# T15 construct: Bought Fc-tagged protein
# [19] = target: T16, NKG2C (Fc, R&D system 138-NK-050) (UniProt P26717 94-231, limits assumed); assay: flow cytometry, tagged protein on scFv-K562 cells
# T16 construct: Bought Fc-tagged protein
# [20] = target: T17, NKG2A (Fc, R&D system 10511-NK-050) (UniProt P26715 94-233, limits assumed); assay: flow cytometry, tagged protein on scFv-K562 cells
# T17 construct: Bought Fc-tagged protein
# [21] = target: KIR2DS3 (Fc, prepared in-house) (UniProt Q14952 22-245, limits assumed); assay: flow cytometry, tagged protein on scFv-K562 cells
# [22] = target: T18, KIR3DL3 (Fc, R&D system 10104-KR-050) (UniProt Q8N743 26-322, limits assumed); assay: flow cytometry, tagged protein on scFv-K562 cells
# T18 construct: Bought Fc-tagged protein
# [23] = target: T19, KIR2DL4 (Fc, R&D system 2238-KR-050) (UniProt Q99706 24-242, limits assumed); assay: flow cytometry, tagged protein on scFv-K562 cells
# T19 construct: Bought Fc-tagged protein
# [24] = target: T20, recombinant KIR2DS2 (extracellular domain-Fc-Avi, in-house) (human); assay: flow cytometry, KIR-Fc on scFv-K562 cells
# T20 construct: In-house; IL-2 signal peptide left out; also called soluble KIR2DS2
# [25] = target: T21, recombinant KIR2DS4 (extracellular domain-Fc-Avi, in-house) (human); assay: flow cytometry, KIR-Fc on scFv-K562 cells
# T21 construct: In-house; IL-2 signal peptide left out; also called soluble KIR2DS4
# [26] = target: T22, recombinant KIR2DS1 (extracellular domain-Fc-Avi, in-house) (human); assay: flow cytometry, KIR-Fc on scFv-K562 cells
# T22 construct: In-house; IL-2 signal peptide left out; also called soluble KIR2DS1
# [27] = target: T23, recombinant KIR2DL1 (extracellular domain-Fc-Avi, in-house) (human); assay: flow cytometry, KIR-Fc 0.1 µM on scFv-K562 cells
# T23 construct: IL-2 signal peptide left out; also called soluble KIR2DL1
# T23 sequence (chain, as listed by the source): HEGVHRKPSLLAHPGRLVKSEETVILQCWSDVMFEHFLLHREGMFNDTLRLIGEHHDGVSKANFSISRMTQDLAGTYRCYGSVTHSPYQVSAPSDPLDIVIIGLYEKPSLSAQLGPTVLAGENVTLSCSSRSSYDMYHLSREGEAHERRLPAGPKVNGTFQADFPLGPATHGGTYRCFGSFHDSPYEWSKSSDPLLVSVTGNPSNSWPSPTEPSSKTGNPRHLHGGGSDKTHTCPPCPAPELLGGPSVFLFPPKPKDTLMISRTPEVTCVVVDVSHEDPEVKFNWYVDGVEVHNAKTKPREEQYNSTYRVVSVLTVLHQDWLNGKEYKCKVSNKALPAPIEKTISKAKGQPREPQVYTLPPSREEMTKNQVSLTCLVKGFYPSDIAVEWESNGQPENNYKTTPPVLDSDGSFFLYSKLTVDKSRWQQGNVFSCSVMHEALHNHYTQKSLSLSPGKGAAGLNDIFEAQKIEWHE
# T13 sequence (Q8NHL6 24-458 limits assumed): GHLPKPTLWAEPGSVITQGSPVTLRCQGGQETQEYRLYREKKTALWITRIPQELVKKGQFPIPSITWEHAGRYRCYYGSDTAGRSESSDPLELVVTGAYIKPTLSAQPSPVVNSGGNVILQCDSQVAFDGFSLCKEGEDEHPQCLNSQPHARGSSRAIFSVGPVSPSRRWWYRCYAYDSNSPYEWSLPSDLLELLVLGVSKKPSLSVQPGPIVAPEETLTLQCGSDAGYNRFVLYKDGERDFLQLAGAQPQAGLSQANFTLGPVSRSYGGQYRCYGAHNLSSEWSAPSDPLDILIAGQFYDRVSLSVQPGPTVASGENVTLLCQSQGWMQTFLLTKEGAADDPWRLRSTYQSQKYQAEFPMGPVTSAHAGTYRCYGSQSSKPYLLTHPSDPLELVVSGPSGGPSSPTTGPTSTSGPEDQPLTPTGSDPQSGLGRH
# T8 sequence (Q07444 94-240 limits assumed): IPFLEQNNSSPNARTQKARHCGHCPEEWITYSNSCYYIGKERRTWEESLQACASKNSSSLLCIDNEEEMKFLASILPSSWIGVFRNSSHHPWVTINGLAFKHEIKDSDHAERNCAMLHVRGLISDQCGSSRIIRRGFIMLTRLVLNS
# T10 sequence (Q14943 22-340 limits assumed, change not shown): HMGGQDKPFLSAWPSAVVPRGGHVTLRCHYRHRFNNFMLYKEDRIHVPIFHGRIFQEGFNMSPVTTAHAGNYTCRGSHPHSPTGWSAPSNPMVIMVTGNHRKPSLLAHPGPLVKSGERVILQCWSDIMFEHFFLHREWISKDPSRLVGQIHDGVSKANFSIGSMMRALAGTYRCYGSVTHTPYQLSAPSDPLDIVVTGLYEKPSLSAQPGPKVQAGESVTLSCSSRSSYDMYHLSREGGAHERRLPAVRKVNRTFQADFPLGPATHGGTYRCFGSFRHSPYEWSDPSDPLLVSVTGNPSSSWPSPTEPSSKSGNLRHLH
# T17 sequence (P26715 94-233 limits assumed): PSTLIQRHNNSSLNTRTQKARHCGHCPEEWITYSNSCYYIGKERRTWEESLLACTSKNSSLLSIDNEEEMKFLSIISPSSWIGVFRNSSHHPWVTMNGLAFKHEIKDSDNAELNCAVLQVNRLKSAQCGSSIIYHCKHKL
# T7 sequence (O76036 22-258 limits assumed): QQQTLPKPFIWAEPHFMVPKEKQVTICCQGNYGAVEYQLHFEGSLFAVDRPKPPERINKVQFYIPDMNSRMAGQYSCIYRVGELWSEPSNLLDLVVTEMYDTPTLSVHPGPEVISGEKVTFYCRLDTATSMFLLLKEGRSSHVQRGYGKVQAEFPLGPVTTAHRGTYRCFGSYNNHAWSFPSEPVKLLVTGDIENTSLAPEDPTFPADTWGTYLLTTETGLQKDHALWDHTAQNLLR
# Chain of KIR2DS3 (Fc, prepared in-house) (Q14952 22-245 limits assumed): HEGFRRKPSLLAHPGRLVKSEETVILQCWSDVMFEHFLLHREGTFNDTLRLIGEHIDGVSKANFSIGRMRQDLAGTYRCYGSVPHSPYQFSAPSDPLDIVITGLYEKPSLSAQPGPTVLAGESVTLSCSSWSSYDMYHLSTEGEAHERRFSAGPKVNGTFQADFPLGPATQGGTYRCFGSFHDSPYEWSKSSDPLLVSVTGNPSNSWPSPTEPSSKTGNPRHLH
# T12 sequence (P43629 22-340 limits assumed): as the sequence (Q14943 22-340 limits assumed, change not shown) above, with V47I, G58S, M92V, R136K, W138G, S163P, R166L, L199P, L315P counted along it
# T19 sequence (Q99706 24-242 limits assumed): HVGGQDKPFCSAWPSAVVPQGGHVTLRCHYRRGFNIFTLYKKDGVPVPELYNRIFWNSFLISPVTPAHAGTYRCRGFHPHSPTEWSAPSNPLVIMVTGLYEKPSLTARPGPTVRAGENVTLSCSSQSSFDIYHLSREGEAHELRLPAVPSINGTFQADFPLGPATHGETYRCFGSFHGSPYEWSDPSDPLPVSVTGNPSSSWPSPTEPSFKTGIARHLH
# T21 sequence (chain, as listed by the source): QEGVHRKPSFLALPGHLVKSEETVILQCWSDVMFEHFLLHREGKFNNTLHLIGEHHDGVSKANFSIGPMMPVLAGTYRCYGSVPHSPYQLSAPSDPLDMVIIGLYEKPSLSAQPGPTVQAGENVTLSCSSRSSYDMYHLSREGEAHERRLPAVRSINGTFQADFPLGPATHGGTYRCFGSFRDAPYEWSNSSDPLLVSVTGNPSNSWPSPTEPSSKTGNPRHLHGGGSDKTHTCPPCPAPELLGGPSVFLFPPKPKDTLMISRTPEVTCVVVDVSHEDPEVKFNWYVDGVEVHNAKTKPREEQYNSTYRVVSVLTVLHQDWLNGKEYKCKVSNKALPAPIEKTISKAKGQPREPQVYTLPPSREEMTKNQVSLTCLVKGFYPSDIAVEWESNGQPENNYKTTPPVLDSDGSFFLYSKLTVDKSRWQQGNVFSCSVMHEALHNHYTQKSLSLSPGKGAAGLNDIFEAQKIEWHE
# T22 sequence (chain, as listed by the source): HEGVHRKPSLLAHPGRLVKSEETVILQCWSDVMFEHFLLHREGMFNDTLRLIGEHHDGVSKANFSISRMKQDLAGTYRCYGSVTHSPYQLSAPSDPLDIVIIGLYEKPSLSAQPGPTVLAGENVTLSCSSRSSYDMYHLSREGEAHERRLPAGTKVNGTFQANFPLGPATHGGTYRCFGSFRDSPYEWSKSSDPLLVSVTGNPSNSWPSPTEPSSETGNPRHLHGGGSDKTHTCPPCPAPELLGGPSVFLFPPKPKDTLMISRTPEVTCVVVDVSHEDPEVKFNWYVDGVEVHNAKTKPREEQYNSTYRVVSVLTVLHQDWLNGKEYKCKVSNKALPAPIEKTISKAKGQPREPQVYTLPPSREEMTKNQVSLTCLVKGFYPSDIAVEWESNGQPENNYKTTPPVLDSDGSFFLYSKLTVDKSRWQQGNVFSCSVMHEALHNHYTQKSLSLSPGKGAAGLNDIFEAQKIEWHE
# T11 sequence (P43626 22-245 limits assumed): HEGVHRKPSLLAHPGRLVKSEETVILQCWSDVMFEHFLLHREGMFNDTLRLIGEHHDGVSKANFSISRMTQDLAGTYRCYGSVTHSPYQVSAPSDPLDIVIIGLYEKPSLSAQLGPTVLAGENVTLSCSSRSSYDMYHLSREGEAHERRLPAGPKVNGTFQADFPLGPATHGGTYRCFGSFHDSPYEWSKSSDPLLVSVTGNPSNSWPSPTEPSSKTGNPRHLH
# Chain of CD16a (Fc, R&D system 4325-FC-050) (P08637 17-208 limits assumed): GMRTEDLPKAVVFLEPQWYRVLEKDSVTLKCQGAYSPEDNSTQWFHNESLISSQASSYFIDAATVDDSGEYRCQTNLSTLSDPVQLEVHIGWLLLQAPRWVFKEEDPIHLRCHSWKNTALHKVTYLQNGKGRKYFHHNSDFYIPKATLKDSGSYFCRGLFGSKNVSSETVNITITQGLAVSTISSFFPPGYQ
# T18 sequence (Q8N743 26-322 limits assumed): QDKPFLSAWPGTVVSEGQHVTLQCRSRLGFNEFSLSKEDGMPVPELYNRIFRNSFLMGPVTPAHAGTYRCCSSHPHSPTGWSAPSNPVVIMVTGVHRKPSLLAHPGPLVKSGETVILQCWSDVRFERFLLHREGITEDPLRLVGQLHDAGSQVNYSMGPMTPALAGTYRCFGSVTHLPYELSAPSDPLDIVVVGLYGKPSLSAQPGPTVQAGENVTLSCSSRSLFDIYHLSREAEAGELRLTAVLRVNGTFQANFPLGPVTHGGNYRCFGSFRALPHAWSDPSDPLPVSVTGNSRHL
# Chain of CD64 (Fc, R&D system 1257-FC-050) (P12314 16-288 limits assumed): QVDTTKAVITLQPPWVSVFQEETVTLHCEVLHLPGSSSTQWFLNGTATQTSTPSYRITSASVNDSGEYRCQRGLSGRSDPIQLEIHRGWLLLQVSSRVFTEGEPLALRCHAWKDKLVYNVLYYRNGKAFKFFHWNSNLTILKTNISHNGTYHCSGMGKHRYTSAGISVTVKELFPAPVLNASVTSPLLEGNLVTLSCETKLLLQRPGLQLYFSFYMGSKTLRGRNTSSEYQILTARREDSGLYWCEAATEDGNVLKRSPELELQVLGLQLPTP
# Chain of CD16b (Fc, R&D system 1597-FC-050) (O75015 17-200 limits assumed): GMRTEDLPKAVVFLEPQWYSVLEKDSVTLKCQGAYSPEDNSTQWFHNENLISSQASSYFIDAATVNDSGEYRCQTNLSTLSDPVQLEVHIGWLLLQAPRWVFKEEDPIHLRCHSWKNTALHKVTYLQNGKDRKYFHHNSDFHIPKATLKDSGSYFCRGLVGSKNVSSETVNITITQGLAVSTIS
# T16 sequence (P26717 94-231 limits assumed): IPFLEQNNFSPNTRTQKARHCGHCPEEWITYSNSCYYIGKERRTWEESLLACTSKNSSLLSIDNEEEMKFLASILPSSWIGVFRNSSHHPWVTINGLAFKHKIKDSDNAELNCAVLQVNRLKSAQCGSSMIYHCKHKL
Binder,binding result [1],binding result [2],binding result [3],binding result [4],binding result [5],binding result [6],binding result [7],binding result [8],binding result [9],binding result [10],binding result [11],binding result [12],binding result [13],binding result [14],binding result [15],binding result [16],binding result [17],binding result [18],binding result [19],binding result [20],further results
"membrane-type a2DL1-DS11 scFv (scFv, On K562 cells) scFv: DYKDDDDKGSGEVQLVQSGAEVKKPGSSVKVSCKASGGTFSSYAISWVRQAPGQGLEWMGGIIPIFGTANYAQKFQGRVTITADESTSTAYMELSSLRSEDTAVYYCARGLRFFDYWGQGTLVTVSSGGGGSGGGGSGGGGSQSVLTQPPSASGTPGQRVTISCSGSSSNIGTNTVNWYQQFPGTAPKLLIYSNNQRPSGVPDRFSGSKSGTSGSLAISGLQSEDEADYYCAAWDDSLQGWLFGGGTKLTVLALSNSIMYFSHFVPVFLPAKPTTTPAPRPPTPAPTIASQPLSLRPEACRPAAGGAVHTRGLDFACDIYIWAPLAGTCGVLLLSLVITLYCNH",–,–,–,–,–,–,–,–,–,–,–,–,–,–,–,–,–,–,–,–,binding result [27]: binds
"membrane-type a2DL1-DS1 scFv (scFv, On K562 cells) scFv: DYKDDDDKGSGQVQLQQSGPELVRASQTLSLTCAISGDSVSSNSATWNWIRQSPSRGLEWLGRTYYRSKWYNDYAVSVKSRITINPDTSKNQFSLQLNSVTPEDTAVYYCARDSPSYGRGVFDIWGQGTLVTVSSGGGGSGGGGSGGGGSDIVMTQSPDSLAVSLGERATINCKSSQSVLYSSNNKNYLAWYQQKPGQPPKLLIYWASTRESGVPDRFSGSGSGTDFTLTISSLQAEDVAVYYCQQYYSPPYTFGQGTKLEIKALSNSIMYFSHFVPVFLPAKPTTTPAPRPPTPAPTIASQPLSLRPEACRPAAGGAVHTRGLDFACDIYIWAPLAGTCGVLLLSLVITLYCNH",–,–,–,–,–,–,–,–,–,–,–,–,–,–,–,–,–,–,–,–,binding result [27]: binds

# The next lines start with results.
binding result [1],binding result [2],binding result [3],binding result [4],binding result [5],binding result [6],binding result [7],binding result [8],binding result [9],binding result [10],binding result [11],binding result [12],binding result [13],binding result [14],binding result [15],binding result [16],binding result [17],binding result [18],binding result [19],binding result [20],Binder,further results
no binding (tested: 0.1 µM),no binding (tested: 0.1 µM),no binding (tested: 0.1 µM),no binding (tested: 0.1 µM),no binding (tested: 0.1 µM),no binding (tested: 0.1 µM),no binding (tested: 0.1 µM),no binding (tested: 0.1 µM),no binding (tested: 0.1 µM),no binding (tested: 0.1 µM),no binding (tested: 0.1 µM),no binding (tested: 0.1 µM),no binding (tested: 0.1 µM),no binding (tested: 0.1 µM),no binding (tested: 0.1 µM),no binding (tested: 0.1 µM),no binding (tested: 0.1 µM),no binding (tested: 0.1 µM),no binding (tested: 0.1 µM),no binding (tested: 0.1 µM),"membrane-type a2DL2/3-DS4 scFv (scFv, On K562 cells) scFv: DYKDDDDKGSGEVQLVQSGAEVKKPGSSVKVSCKASGGTFSSYAISWVRQAPGQGLEWMGGIIPIFGTANYAQKFQDRVTITADKSTSTAYMELSSLRSEDTAVYYCARGSRNFDYWGQGTLVTVSSGGGGSGGGGSGGGGSAIRMTQSPSSLSASVGDRVTIPCRASQSIGSYLNWYQQKPGKAPNLLIYAASSLQSGVPSRFSGSGSGTDFTLTISSLQPEDFATYYCQQSYSTPLTFGGGTKVDIKALSNSIMYFSHFVPVFLPAKPTTTPAPRPPTPAPTIASQPLSLRPEACRPAAGGAVHTRGLDFACDIYIWAPLAGTCGVLLLSLVITLYCNH",binding result [21]: no binding (tested: 0.1 µM); binding result [22]: no binding (tested: 0.1 µM); binding result [23]: no binding (tested: 0.1 µM); binding result [24]: no binding (tested: 0.1 µM); binding result [25]: no binding (tested: 0.1 µM); binding result [26]: no binding (tested: 0.1 µM)
no binding (tested: 0.1 µM),no binding (tested: 0.1 µM),no binding (tested: 0.1 µM),no binding (tested: 0.1 µM),no binding (tested: 0.1 µM),no binding (tested: 0.1 µM),no binding (tested: 0.1 µM),no binding (tested: 0.1 µM),no binding (tested: 0.1 µM),no binding (tested: 0.1 µM),no binding (tested: 0.1 µM),no binding (tested: 0.1 µM),no binding (tested: 0.1 µM),no binding (tested: 0.1 µM),no binding (tested: 0.1 µM),no binding (tested: 0.1 µM),no binding (tested: 0.1 µM),no binding (tested: 0.1 µM),no binding (tested: 0.1 µM),no binding (tested: 0.1 µM),"membrane-type a2DL2/3-DS10 scFv (scFv, On K562 cells; also called a2DL2/3-DS10 WT scFv) scFv: DYKDDDDKGSGQVQLVQSGAEVKKPGSSVKVSCKASGGTFSSFAISWVRQAPGQGLEWMGGIIPIFGTANYAQKFQGRVTITADESTSTAYMELSSLRSEDTAVYYCARVSGTTGGYYYGMDVWGQGTLVTVSSGGGGSGGGGSGGGGSAIRMTQSPSSVSASVGDRVTITCRASQGIGNWLAWYQQKPGRAPKLLISTASSLQSGVPSRFSGGGSGRGFTLTISSLQLEDFATYYCQQSYITPWTFGQGTKVEIKALSNSIMYFSHFVPVFLPAKPTTTPAPRPPTPAPTIASQPLSLRPEACRPAAGGAVHTRGLDFACDIYIWAPLAGTCGVLLLSLVITLYCNH",binding result [21]: no binding (tested: 0.1 µM); binding result [22]: no binding (tested: 0.1 µM); binding result [23]: no binding (tested: 0.1 µM); binding result [24]: no binding (tested: 0.1 µM); binding result [25]: no binding (tested: 0.1 µM); binding result [26]: no binding (tested: 0.1 µM)
